Source: patent US7732178B2, “Laccase enzymes and their uses” (AB Enzymes Oy, priority 2004, dated 2010)

Key:
[1] = Specific activity towards guaiacol; type: biochemical; conditions: 25 mM MES buffer, pH 5.5
Description: Specific activities of the purified T. arenaria and C. thermophilum laccases were determined towards different laccase substrates.

[2] = Isoelectric focusing (pI); type: physicochemical; conditions: pH range 3-9
In short: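 Purified Thielavia arenaria and Chaetomium thermophilum laccases resolved by isoelectric focusing over pH 3-9. pI read from focused band position.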

[3] = Denim bleaching at different temperatures; design: key to After laccase treatment L* / After laccase treatment b* / Increase of L*: CIE L*a*b* colour coordinates (illuminant D65), reflectance; conditions: for decolorization of denim (increase of lightness) compared to Denilite II Base: 40-50 ° C. and pH 6; for After laccase treatment L* / After laccase treatment b* / Increase of L*: face side of denim, 30 min, pH 6, enzyme 200 nkat/g, mediator 10 mg/g
Description: Lee Cooper jeans (MASI Company Oy, Finland) that were desized and treated with neutral ECOSTONE® cellulase were used as test material. Laccase treatments were performed in LP-2 Launder Ometer as follows. About 10 g of denim swatches (15×14 cm) were loaded into 1.2 liter containers containing 200 ml Mc Ilvaine's citrate phosphate buffer pH 5, 6 or 7 and the containers were temperated. Enzyme with or without the mediator (methyl syringate, DeniLite II Assist, Novozymes) was added as laccase activity units. Enzyme was dosed 200 nkat/g and the mediator 10 mg/g on the weight of fabric. […] The Launder Ometer was run at 50° C. for 30 min and after that the temperature in Launder was raised to 80° C. for 10 min. The swatches were carefully rinsed with warm water, dried half-dry in a tumbler and after that air dried.
The bleaching effect was evaluated by measuring the colour as reflectance values with the Minolta Chromameter CM 1000 (Minolta Co.) using L*a*b* color space coordinates (illuminant D65). The colour from both sides of the swatches was measured before and after the laccase treatment. Each measurement was the average of several measurements.
The test system and denim were as in Example 7, except that the conditions during the laccase and mediator treatment in Launder were 30 min, pH 6 and temperature 30-70° C. (DeniLite II Base also at 80° C.) and the enzyme was inactivated by alkaline treatment instead of raising the temperature in Launder as follows. After removing swatches from the containers they were soaked in warm water containing NaOH (pH 11.5) for 10 min and rinsed carefully with warm water. The swatches were dried half-dry in a tumbler and after that air dried. The bleaching effect was evaluated by measuring the colour as reflectance values as in Example 7.

[4] = Stain removal, tea soiling; design: key to Tea L* / Tea a* / Tea b*: CIE L*a*b* color coordinates from reflectance; conditions: for Tea L* / Tea a* / Tea b*: 60 min, pH 6; for removal of tea soiling with the mediator: CtLcc1 at 60° C., TaLcc2 at 50° C.
Description: Laccases CtLcc1, TaLcc2, TaLcc4 and Denilite II Base (Example 7) were tested for their ability to remove stains. The following artificially soiled test cloths were used: grass soiling (Art.164, EMPA Testmaterialen, Germany), tea soiling (Art. 167, EMPA Testmaterialen, Germany). The fabric was cut in 5.8×5.8 cm swatches. Laccase treatments were performed in LP-2 Launder Ometer as follows. About 5 g of soiled fabrics were loaded into 1.2 liter containers containing 150 ml Mc Ilvaine's citrate phosphate buffer pH 6 and the containers were temperated. Enzyme with or without the mediator (methyl syringate, DeniLite II Assist, Novozymes) was added as laccase activity units (Example 7). Enzyme was dosed 200 nkat/g and the mediator 10 mg/g on the weight of fabric, except at 40° C. dosages of 20 nkat/g and 2 mg/g were also used. The Launder Ometer was run at 40, 50 or 60° C. and pH 6 for 60 min. After that the swatches were carefully rinsed under running water and in shake flasks containing warm water and dried in the air.
The stain removal effect was evaluated by measuring the colour as reflectance values using L*a*b* color space coordinates (Example 7). The colour of the swatches was measured before and after the laccase treatment.

[5] = 40° C., enzyme 20 nkat/g + mediator 2 mg/g (Mediator only: 0 nkat/g)
[6] = 40° C., enzyme 200 nkat/g + mediator 10 mg/g (Mediator only: 0 nkat/g)
[7] = 40° C., enzyme 200 nkat/g, mediator 0 mg/g
[8] = 60° C., enzyme 200 nkat/g + mediator 10 mg/g (Mediator only: 0 nkat/g)
[9] = 60° C., enzyme 200 nkat/g, mediator 0 mg/g
[10] = 40° C., enzyme 200 nkat/g + mediator 10 mg/g (Mediator only: 0 nkat/g), RF5571
[11] = 40° C., enzyme 200 nkat/g + mediator 10 mg/g (Mediator only: 0 nkat/g), RF5573
[12] = 50° C., enzyme 200 nkat/g + mediator 10 mg/g (Mediator only: 0 nkat/g)

Molecule | Specific activity on guaiacol [1] | pI [2] | decolorization of denim (increase of lightness) compared to Denilite II Base [3] | After laccase treatment L* ([3]; 30° C.) | After laccase treatment b* ([3]; 30° C.) | Increase of L* ([3]; 30° C.) | After laccase treatment L* ([3]; 40° C.) | After laccase treatment b* ([3]; 40° C.) | Increase of L* ([3]; 40° C.) | After laccase treatment L* ([3]; 50° C., alkaline inactivation) | After laccase treatment b* ([3]; 50° C., alkaline inactivation) | Increase of L* ([3]; 50° C., alkaline inactivation) | After laccase treatment L* ([3]; 60° C.) | After laccase treatment b* ([3]; 60° C.) | Increase of L* ([3]; 60° C.) | After laccase treatment L* ([3]; 70° C.) | After laccase treatment b* ([3]; 70° C.) | Increase of L* ([3]; 70° C.) | Tea L* [4, 5] | Tea a* [4, 5] | also measured
CtLcc1: Chaetomium thermophilum ALKO 4265 laccase, SEQ ID NO: 47, produced in Trichoderma reesei (protein, Chaetomium thermophilum ALKO4265; (1)..(607) Deduced amino acid sequence of Chaetomium thermophilum ALKO4265 CtLcc1) MKFLTYATALLGALTAVVGAIPTRSGTKKKYIRDGPGPCHTPSNRACWAPGFDINTDYEVNTPNTGVTRNYTLTLTEEDNWTGPDGVVKEKIMLVNGKTLGPTIEANWGDWIEVKVINNLLTNGTSIHWHGIHQKGSNLHDGANGVTECPIPPNGGQRTYRFRAQQYGTSWYHSHFSAQYGNGIVGPIVIHGPASLPYDIDLGPFPLTDYYYKSADELVRHTQNNGPPFSDNVLFNGTGVHPQTGHGQYAKVTLTPGKRHRLRIINMSTENHFQVSLVGHQFTVIAADMVPVHSYTTDSLFLAVGQRYDVTIDASQTPGNYWFNVTFGGGFACGGSFNPNPAAIFHYEGAPDALPTDPGVPPRDHNCLDTLDLVPVVPRNVQVNQFVKKPENTLPVELSLGGTPLFVWKVNGSAIDVDWGNPVLQYVMDRNTSYRQADNIVEVNGVNQWTYWLIENDPNGAFSLPHPMHLHGHDFLIVGRSPDVPPGSNQRYNFDPATDIYRLRGQNPTRRDVAMLPAGGWLLLAFLTDNPGAWLFHCHIAWHVSGGLSVDFLERPNDLRNSILQHDKDEFNRVCNEWRTYWPNSPHPKIDSGLKHRWVEESEWLVR | 85 nkat/mg | 4.0-4.3 | more efficient | 31.78 | −19.15 | 2.44 | 34.43 | −18.77 | 5.72 | 36.78 | −18.96 | 8.26 | 37.40 | −18.29 | 8.52 | 34.16 | −17.91 | 5.23 | 76.34 | 5.10 | Tea b* [4, 5]: 23.89; Tea L* [4, 6]: 77.70; Tea a* [4, 6]: 4.26; Tea b* [4, 6]: 24.50; Tea L* [4, 7]: 76.22; Tea a* [4, 7]: 5.37; Tea b* [4, 7]: 22.68; Tea L* [4, 8]: 79.76; Tea a* [4, 8]: 3.52; Tea b* [4, 8]: 22.16; Tea L* [4, 9]: 77.10; Tea a* [4, 9]: 4.84; Tea b* [4, 9]: 21.10; removal of tea soiling with the mediator [4]: effective
TaLcc2: Thielavia arenaria ALKO 4197 laccase, SEQ ID NO: 41, produced in Trichoderma reesei (protein, Thielavia arenaria ALKO4197; (1)..(589) Deduced amino acid sequence of Thielavia arenaria ALKO4197 TaLacc2) MLTETLKSRNMLQSILALLATALGSSAFAIPELPEVSLQPRQACENTATSRQCWGDLSIDTNYYEVLPSTGRPPQEYWLSVVEGPCAPDGYNRTCMTFNGTVPGPTLFADWGDELVIHVTNNMVNNGTAIHWHGIRMLNNTLNDGVPGVTQCAIAPGESMTYRFNVTQYGSTWYHSHFSLQYAEGLFGGMILRGPSTANWDEDLGVLFLQDWSHVEAFTRWHEAKAGFPPSLDGGLINGTNTFDCSTLSPTDPKCTGNGKKFETVFEPGKKYLIRLINVAIDGVFQFSIDGHSLTVIATDLVPIVPYTTDSVQITIGQRYDIIVEANATPGNYWMRADWVTACVTNDHPEHMTGIVRYDASSIDPPTSESNVTKTSSCLGEPNEKTIPHLSLDVTNIGGTNVEELSFDTTSGDYFQWTLNTSSLVLDWGNPTMARIFNGDAIFPTEYNVVAVNKTGTGPEWTVLVIQDQSNLPIAHPIHLHGHDFWVLAAEEGVFNGNISSFNTRNPARRDVATLPGRGYLAIAFQIDNPGTWLTHCHIAWHASQGLSLEFVESQSEIVTDEVSRGVFNDVCASWRAHDPLWEQEDSGI | 40 nkat/mg | 3.5 | more efficient | 33.99 | −19.33 | 4.45 | 37.08 | −18.53 | 8.15 | 37.47 | −18.48 | 9.00 | 36.07 | −18.26 | 6.82 | 32.84 | −17.94 | 4.54 | 75.61 | 5.24 | Tea b* [4, 5]: 23.66; Tea L* [4, 10]: 77.28; Tea a* [4, 10]: 4.36; Tea b* [4, 10]: 24.32; Tea L* [4, 11]: 77.04; Tea a* [4, 11]: 4.41; Tea b* [4, 11]: 24.36; Tea L* [4, 7]: 76.09; Tea a* [4, 7]: 5.37; Tea b* [4, 7]: 22.59; Tea L* [4, 12]: 77.73; Tea a* [4, 12]: 3.99; Tea b* [4, 12]: 22.89; removal of tea soiling with the mediator [4]: effective
